These results are taken from patent US10717774B2, “Compositions and methods for treating cancers” (Kiromic, Inc., priority 2016, dated 2020).

What all share (type): cell-based, human
Test [1] relates to ovarian cancer cell line SKOV3. Description: MTT assay in SKOV3. To be noted: for combined effect with Pax compared to Paclitaxel alone by MTT assay: 20 μg/mL 48 hours plus Paclitaxel 100 nM for the last 24 hours; for viability of metabolically-active cells (MTT): protein alone, 20 μg/mL, 48 hours, compared to the control cells. The procedure: (§1) The human multiple myeloma cell line U266, ovarian cancer cell line SKOV3, and acute monocytic leukemia cell line THP1 were cultured in RPMI 1640 with 10% FBS. The breast cancer cell line MCF7 was cultured in Dulbecco's modified Eagle's medium (DMEM) with 10% FBS. Drugs were purchased from Merck Millipore and used at the following concentrations: Bortezomib (Bor) 5 nM; Cytarabine (Ara-c) 3.87 μM; Rapamycin (Rapa) 100 nM; Paclitaxel (Pax) 100 nM.
(§2) Cells were seeded in 96-well plates, at a volume of 100 μL cell suspension/well, in quadruplicate. SKOV3 and MCF7 cells were seeded at a density of 100,000 cells/mL. THP1 cells were seeded at a density of at 200,000 cells/mL; whereas, U266 cells were seeded at a density of 300,000 cells/mL. Cells were then treated with CBPI1 or CBPI2 at 20 μg/mL for 48 hours. For the last 24 hours, the appropriate drugs were added. Cell viability was subsequently assayed after 48 hours of incubation with 0.6 mg/mL MTT ((3-(4,5-dimethylthiazolyl-2)-2,5-diphenyltetrazolium bromide; Sigma-Aldrich) for 4 hours. Formazan crystals were dissolved in […] 0.01N HCL/isopropanol. Specific absorbance was measured at 570 nm with subtraction of background at 690 nm.
(§3) Data are represented as means±SD from at least three (3) independent experiments. ***^=P<0.001; **^=P<0.01; *^=P<0.05.
(Tetrazolium dyes change colour on reduction, which living cells bring about.)

The test system of test [2] is multiple myeloma cell line U266. Description: Detection of apoptosis (Annexin-V FITC / propidium iodide flow cytometry) in U266. As to conditions: 20 μg/mL 48 hours, combined with Bortezomib (Bor) 5 nM for the last 24 hours; compared with Bor alone. As to the method:
as §1
(§4) Cells were seeded in 48-well at the same concentrations for the MTT assay. The cells were treated with CBPI1 or CBPI2 at 20 μg/mL for 48 hours. For the last 24 hours, the appropriate drugs were added. […] Finally, 400 μL of Binding Buffer 1× were added to the tube and samples were processed and analyzed using the BD FACSVerse™ System (BD Biosciences). […]
(§5) FIG. 6—After the indicated treatments, the cells were analyzed for apoptosis by flow-cytometry. Plots represent the relative of fluorescence intensities in the green (FL1, horizontal axis) and red (FL2, vertical axis) channels. […] Red fluorescence is thus picked up by the flow-cytometer in the FL2 channel. Each dot represents a fluorescent signal (cell), detected by the flow-cytometer. […]

For test [3], the system named is breast cancer cell line MCF7. Description: Detection of apoptosis (Annexin-V FITC / propidium iodide flow cytometry) in MCF7. To be noted: protein alone, 20 μg/mL, 48 hours; compared to the control cells. The procedure:
as §1, §4, §5

Test [4] has as its system breast cancer cell line MCF7. The test can be described thus: MTT assay in MCF7. To be noted: protein alone, 20 μg/mL, 48 hours. As to the method: as §1, §2, §3
Test [5] concerns acute monocytic leukemia cell line THP1. The test can be described thus: MTT assay in THP1. As to conditions: protein alone, 20 μg/mL, 48 hours. As to the method:
as §1, §2, §3

Test [6] concerns ovarian cancer cell line SKOV3. Description: Detection of apoptosis (Annexin-V FITC / propidium iodide flow cytometry) in SKOV3. To be noted: for apoptotic rate of SKOV3 cells: 20 μg/mL 48 hours, combined with Paclitaxel (Pax) 100 nM for the last 24 hours, compared with Paclitaxel alone. As to the method:
as §1
Cells were seeded in 48-well at the same concentrations for the MTT assay. The cells were treated with CBPI1 or CBPI2 at 20 μg/mL for 48 hours. For the last 24 hours, the appropriate drugs were added. After 48 hours, the cells were washed with cold 1×PBS, resuspended in “Binding buffer 1×” (i.e., HEPES 0.01M; NaCl 0.14M; and CaCl2 2.5 mM) and incubated for 15 minutes with Annexin-V FITC (BD Biosciences)+Propidium Iodide (2.5 μg/mL final; Sigma-Aldrich) in the dark. Finally, 400 μL of Binding Buffer 1× were added to the tube and samples were processed and analyzed using the BD FACSVerse™ System (BD Biosciences).
as §3
FIG. 6—After the indicated treatments, the cells were analyzed for apoptosis by flow-cytometry. Plots represent the relative of fluorescence intensities in the green (FL1, horizontal axis) and red (FL2, vertical axis) channels. The apoptosis detector, Annexin-V, is linked to a green fluorescent molecule (FITC), and produces a fluorescent signal in the FL1 channel. Cells in late apoptosis are unable to pump propidium iodide (PI) out of the cytoplasm, and are therefore red fluorescent. Red fluorescence is thus picked up by the flow-cytometer in the FL2 channel. Each dot represents a fluorescent signal (cell), detected by the flow-cytometer. Each dot-plot is divided into 4 quadrants. From bottom-left and proceeding counter-clockwise, these are Q1, Q2, Q3, and Q4. […]
In general terms: A flow cytometer gives signals particle by particle.

The test system of test [7] is multiple myeloma cell line U266. The test can be described thus: MTT assay in U266. As to conditions: protein alone, 20 μg/mL, 48 hours. As to the method: as §1, §2, §3
For test [8], the system named is acute monocytic leukemia cell line THP1. Description: Detection of apoptosis (Annexin-V FITC / propidium iodide flow cytometry) in THP1. As to conditions: 20 μg/mL 48 hours, in combination with Ara-C 3.87 μM for the last 24 hours; compared to the control cells. As to the method:
as §1, §4, §5

B1: CBPI2: novel Gal-3 N-terminal truncation protein, deletes amino acids 1-112, substitutions P113A, L114V, Y118N, and T248N (protein)
chain: AVIVPNNLPLPGGVVPRMLITILGTVKPNANRIALDFQRGNDVAFHFNPRFNENNRRVIVCNTKLDNNWGREERQSVFPFESGKPFKIQVLVEPDHFKVAVNDAHLLQYNHRVKKLNEISKLGISGDIDLTSASYNMI
As to B1, in test [1], the “combined effect with Pax compared to Paclitaxel alone by MTT assay” value is given as “not evident”. For the same molecule, the “viability of metabolically-active cells (MTT)” value in test [1] is “significantly decrease”; in test [4] it was “significantly decreases”; in test [5] it was “significantly decreases”; in test [7] it was “significantly decrease”. Further, in test [2], the “U266 cells apoptosis rate” value was “significantly increase”. Moreover, the “MCF7 cells apoptotic rate” value in test [3] is reported as “significantly increases”. In test [6], the “apoptotic rate of SKOV3 cells” value is recorded as “significantly increase”. In test [6] (protein alone, 20 μg/mL, 48 hours, SKOV3), the “apoptosis in ovarian cancer cells” value is listed as “effective in causing apoptosis”. Also, in test [8], the “apoptotic rate of THP1 cells” value is listed as “significantly increase”.

B2: CBPI1: novel Gal-3 N-terminal truncation protein, identical in sequence to native Gal-3 amino acids 109-250 (protein)
chain: APAGPLIVPYNLPLPGGVVPRMLITILGTVKPNANRIALDFQRGNDVAFHFNPRFNENNRRVIVCNTKLDNNWGREERQSVFPFESGKPFKIQVLVEPDHFKVAVNDAHLLQYNHRVKKLNEISKLGISGDIDLTSASYTMI
Regarding B2, the “combined effect with Pax compared to Paclitaxel alone by MTT assay” value in test [1] was “not evident”. Further, the “viability of metabolically-active cells (MTT)” value in test [1] and in test [7] was “significantly decrease” in each case. For the same molecule, the “apoptotic rate of SKOV3 cells” value in test [6] is recorded as “significantly increase”. The “apoptotic rate of THP1 cells” value in test [8] is listed as “significantly increase”.
